Measured values from PMC9597087.

Biological target: microtubules (human (endogenous in U2-OS)) (UniProt Q71U36)
Experiment: FRAP (fluorescence recovery after photobleaching); living U2-OS cells 48h after transfection, interphase, no STLC; 1.5 um^2 areas bleached, spinning disk confocal; traces analysed with easyFRAP, normalised to pre-bleaching intensity

GFP-tagged Eg5(T107N) (from UniProt P52732 1-1056) (natural protein)
mobility fraction (FRAP): 0.06
